# Experimental data: publication PMC9116965 (iScience, 2022)
# Columns and labels:
# SARS-CoV RBD protein = SARS-CoV RBD protein (Severe acute respiratory syndrome …, UniProt P59594); assay: cell-based or functional assay
# [1] = target: T1, SARS-CoV-2 WT RBD protein (SARS-CoV-2 (WT), UniProt P0DTC2); assay: SPR
# [2] = target: T1, SARS-CoV-2 WT RBD protein; assay: ELISA
binder,measurement,setting,value
"STS165 (full-length IgG form) (antibody, V domains shown) VH: EVQLVESGGGVVRPGGSLRLSCAASGFTFDDYGMSWVRQAPGKGLEWVSGINWNGGSTGYADSVKGRFTISRDNAKNSLYLQMNSLRAEDTALYHCARVGYCGGDCYSLSLAGFPDYWGQGTLVTVSS VL: not shown","pseudovirus neutralisation of SARS-CoV, IC50 (HEK-293T-hACE2 cells, luciferase)",SARS-CoV RBD protein,2.09 µg/mL
"STS165 Fab form (Fab, V domains shown) VH: EVQLVESGGGVVRPGGSLRLSCAASGFTFDDYGMSWVRQAPGKGLEWVSGINWNGGSTGYADSVKGRFTISRDNAKNSLYLQMNSLRAEDTALYHCARVGYCGGDCYSLSLAGFPDYWGQGTLVTVSS VL: not shown",fold decrease of binding affinity against the IgG form,[1],> 50 fold
"S2A4 (antibody, V domains shown) VH: EVQLVESGGGLVQPGGSLRLSCAASGFTFSSYWMNWVRQAPGKGLEWVANIKQDGSEKYYVDSVKGRFTISRDNAKNSLFLQMNSLRAEDTAVYYCARVWWLRGSFDYWGQGTLVTVSS VL: NFMLTQPHSVSESPGKTVTISCTGSSGSIASNYVQWYQQRPGSAPTTVIYEDNQRPSGVPDRFSGSIDSSSNSASLTISGLKTEDEADYYCQSYDSSNHVVFGGGTKLTVL",binding result,[2],binds
"H014 (antibody, V domains shown) VH: EVQLVQSGAEVKKPGATVKISCKVSGYSFSNYYIHWVKQAPGKSLEWIGYIDPFNGGTSDNLKFKGAATLTADTSTDTAYMELSSLRSEDTAVYYCARSEYDPYYVMDYWGQGTTVTVSS VL: IVLTQSPFQSVSPKEKVTITCRASQSISSNLHWYQQKPDQSPKLLIKYASQSISGIPSRFSGSGSGTDFTLTINSLEAEDFGIYFCQQTNFWPYIFGQGTKLEIL",binding result,[2],binds
"EY6A (antibody, V domains shown) VH: EVQLVESGGGVVQPGRSLRLSCAASAFTFSSYDMHWVRQAPGKGLEWVAVISYDGSNKYYADSVKGRFTISRDNSKNTLYLQMNSLRAEDTAVYYCAKDGGKLWVYYFDYWGQGTLVTVSS VL: not shown",binding result,[2],binds
